In paper PMC4465127 one finds Kd data, which are given here for one molecule.

The target in the experiment is LIN-3^EGF (the purified EGF domain from LIN-3) (C. elegans). Kind of experiment: SPR; Biacore 3000; LIN-3 amine-coupled on CM5 chip, sLET-23 injected; steady state, single-site model; 10 mM Hepes pH 8.0, 150 mM NaCl, 3 mM EDTA, 0.005% P-20, room temperature.

B1: LET-23 extracellular region (sLET-23) (domain or fragment)
chain: FGNSNAQLWKRCVSPQDCLCSGTTNGISRYGTGNILEDLETMYRGCRRVYGNLEITWIEANEIKKWRESTNSTVDPKNEDSPLKSINFFDNLEEIRGSLIIYRANIQKISFPRLRVIYGDEVFHDNALYIHKNDKVHEVVMRELRVIRNGSVTIQDNPKMCYIGDKIDWKELLYDPDVQKVETTNSHQHCYQNGKSMAKCHESCNDKCWGSGDNDCQRVYRSVCPKSCSQCFYSNSTSSYECCDSACLGGCTGHGPKNCIACSKYELDGICIETCPSRKIFNHKTGRLVFNPDGRYQNGNHCVKECPPELLIENDVCVRHCSDGHHYDATKDVRECEKCRSSSCPKICTVDGHLTNETLKNLEGCEQIDGHLIIEHAFTYEQLKVLETVKIVSEYITIVQQNFYDLKFLKNLQIIEGRKLHNVRWALAIYQCDDLEELSLNSLKLIKTGAVLIMKNHRLCYVSKIDWSSIITSKGKDNKPSLAIAENRDSKLCETEQRVCDKNCNKRGCWGKEPEDCLECKTWKSVGTCVEKCDTKGFLRNQTSMKCERCSPECETCNGLGELDCLTCRHKTLYNSDFGNRMECVHDCPVSHFPTQKNVCEKCHPTCYDNGCTGPDSNLGYGGCKQCKYAVKYENDTIFCLQSSGMNNVCVENDLPNYYISTYDTEGVIETHCEKCSISCKTCSSAGRNVVQNKCVCKHVEYQPNPSERICMDQCPVNSFMVPDTNNTVCKKCHHECDQNYHCANGQSTGCQKCKNFTVFKGDIAQCVSECPKNLPFSNPANGECLDYDIASRQRKTRM
With B1, the Kd was 2 to 4 µM.
